In US20250340881A1, “PHARMACEUTICAL COMPOSITION FOR TREATING CANCER COMPRISING FOXM1 MUTANT OR FOXM1 SHRNA” (Industry-University Cooperation Foundation Hanyang …, priority 2022, published 2025):

What was measured:
Type in all cases: cell-based
Jurkat cells = experiment: CD25 and CD29 expression (qRT-PCR) in Jurkat cells co-cultured with A549 cells; settings: co-culture 48 h
Experimental: To investigate the polarization into tumor-infiltrating T lymphocytes (TILs) by A549^S25E cells, the expression levels of CD25 and CD29, which were expressed in TILs, were analyzed by qRT-PCR after co-culturing Jurkat cells (1.2×10^5 cells) and A549^S25E cells (4×10^4 cells) for 48 h. As a result, it was observed that there was a significant increase of 3 folds or more, in the expression of CD25 and CD29 in Jurkat cells co-cultured with A549^S25E cells. […] Additionally, to investigate the inhibitory effect of A549^S25A cells on tumor immune evasion by TAMs or TILs in the tumor microenvironment, the viability change was examined by an MTT assay analysis after co-culturing A549 cells expressing the FoxM1 phosphorylation or non-phosphorylated point mutant, THP-1 cells, and Jurkat cells at a ratio of 1:0:0, 1:6:0, 1:0:6, and 1:6:6 for 48 h. […] That is, there was the inhibitory effect of the cells expressing non-phosphorylated point mutant on the tumor immune evasion by TAMs or TILs in the tumor microenvironment. Therefore, the present invention provided the inhibitory effects of the non-phosphorylated point mutant of FoxM1 on tumor immune evasion.

A549 lung cancer cells [1] = experiment: Transwell migration assay of A549 cells expressing FoxM1 WT or point mutants; settings: for migration / motility of cancer cells (in words): Transwell migration assay, A549
Experimental: To examine the effects of FoxM1 WT, phosphorylation, and non-phosphorylated point mutants on the motility of cancer cells, the migration assay was performed in A549 lung cancer cells expressing mutant proteins.
Specifically, 5×10^4 cells of lung cancer cells A549 expressing each of WT, phosphorylation, and non-phosphorylated point mutant of FoxM1 were seeded in an 8.0 μm, 24 well insert, and the inserts were placed in a 24-well plate after medium with 10% fetal bovine serum (FBS) was dispensed in the 24-well plate. For the positive control, 0.5 ml of RPMI1640 (10% FBS) containing 5 ng/ml of TGF-β was used. After 72 hours from cell seeding, 500 μl of 4% paraformaldehyde was dispensed, washed three times with 1×PBS, and stained with 0.05% crystal violet solution for 5 minutes. After 5 minutes, the cells were washed five times with 1×PBS, and the staining intensity was measured using the Odyssey infrared imaging system.
Specifically, 5×10^4 cells of lung cancer cells A549 expressing control and FoxM1 WT were seeded in an 8.0 μm, 24 well insert, and the inserts were placed in a 24-well plate after medium with 10% fetal bovine serum (FBS) was dispensed in the 24-well plate. For the positive control, 0.5 ml of RPMI1640 (10% FBS) containing 5 ng/ml of TGF-β was added and used. After 72 hours from cell seeding, 500 μl of 4% paraformaldehyde was dispensed, washed three times with 1×PBS, and stained with 0.05% crystal violet solution for 5 minutes. After 5 minutes, the cells were washed five times with 1×PBS, and the staining intensity was measured using the Odyssey infrared imaging system.

A549 lung cancer cells [2] = experiment: EMT marker expression (immunoblot, real-time PCR) in A549 cells expressing FoxM1 WT or mutants; settings: A549 cells expressing the mutant
Excerpt: To establish a stabilized cell line expressing WT, phosphorylation, and non-phosphorylated point mutants of FoxM1 in lung cancer cells, A549 cells were first infected with pLVX-Tet3G expressing lentivirus, and the infected cells were selected by treating with G418 for 5 days. The selected A549Tet3G cells were infected with lentiviruses expressing WT and phosphorylated point mutants (S25E, S361E, S715E) and non-phosphorylated point mutants (S25A, S361A, S715A) of FoxM1, and then treated with puromycin for 48 hours to establish a stabilized cell line. The established cells were treated with 2 μg/ml of doxycycline to induce expression of WT, phosphorylation, and non-phosphorylated point mutants of FoxM1, and the mRNA and protein expression levels of each FoxM1 point mutant were determined to confirm whether they were well expressed. As shown in FIG. 4A and FIG. 4B, it was confirmed that the WT and each point mutant form of FoxM1 were well expressed through mRNA and protein expression levels. It was observed that the expression levels of N-cadherin and vimentin were higher, and the expression levels of E-cadherin were lower in lung cancer cells expressing the phosphorylated form of FoxM1, specifically, phosphorylated at the phosphorylation site S25, compared to the cells expressing the non-phosphorylated form of FoxM1. In addition, when it was examined whether the expression of these phosphorylation and non-phosphorylated point mutants of FoxM1 affected cell proliferation, it was observed that it had no significant effect on cell proliferation (FIG. 4C).
To establish a stabilized cell line expressing FoxM1 WT in A549 lung cancer cells, first, pLVX-Tet3G expressing lentivirus was infected into cells, and the infected cells were selected by treating 500 μg/ml of G418 for 5 days. The selected A549^Tet3G cells were infected with lentiviruses expressing FoxM1 WT or Mock, and the stabilized cell lines were established by treating with 2 μg/ml of puromycin for 48 hours. After inducing the expression of FoxM1 WT by treating the established cells with 2 μg/ml of doxycycline, the protein expression was observed by immunoblot.

A549 cells [3] = experiment: Viability of A549 cells co-cultured with Jurkat cells
Excerpt: In addition, through the co-culture of the A549 cells expressing the FoxM1 S25E phosphorylated point mutant (A549^S25E) and Jurkat cells as T cells, it was tried to examine the effects on cancer immunity of T cells (FIG. 7D).

A549 cells [4] = experiment: MTT viability of A549 cells co-cultured with THP-1 cells; settings: ratios 1:0, 1:2, 1:4, 1:6, 48 hours
Experimental: The cell viability was measured to investigate whether the FoxM1 phosphorylation and non-phosphorylation point mutations affected the viability of lung cancer cells, after co-culturing the lung cancer cells (A549) expressing the FoxM1 phosphorylation and non-phosphorylated point mutants and monocyte THP-1 cells. A549 cells (4×10^4 cells/mL) and THP-1 cells were co-cultured at ratios of 1:0, 1:2, 1:4, and 1:6 for 48 hours, and after co-culturing for 48 h and washing off the THP-1 cells, the viability of A549 cells attached to the bottom was measured by an MTT assay.

A549 cells [5] = experiment: PD-L1 (CD274) mRNA in A549 cells by real-time PCR
Experimental: To examine the mRNA expression levels of PD-1 and PD-L1, which are involved in solid tumor immune evasion, in THP-1 cells and the cells expressing the FoxM1 phosphorylated point mutant, the expression of PD-1 (CD279) mRNA, an immune evasion factor, was measured by qRT-PCR in THP-1 monocytes co-cultured with A549^S25E cells for 48 h (FIG. 7B). It was observed that the expression of mRNA of PD-L1 (CD274), an immune evasion factor, increased by 2 folds in the A549^S25E cells expressing the phosphorylated point mutant compared to the control group.

Row | Molecule | expression of CD25 and CD29 in Jurkat cells (Jurkat cells) [folds] | migration / motility of cancer cells (in words) (A549 lung cancer cells [1]) | cancer cell migration (stained intensity), increase compared to the control group (A549 lung cancer cells [1]; Transwell, 72 hours, control set to 1, TGF-β 5 ng/ml positive control) | staining intensity value compared to the control group (A549 lung cancer cells [1]; migration assay, 72 hours, control set to 1) | expression of N-cadherin (CDH2), qRT-PCR and Western blot (A549 lung cancer cells [2]) | viability of A549 cells co-cultured with Jurkat cells (A549 cells [3]; ratio 1:2, 48 h) [folds] | viability of A549 cells co-cultured with Jurkat cells (A549 cells [3]; ratio 1:4, 48 h) [folds] | viability of A549 cells co-cultured with Jurkat cells (A549 cells [3]; ratio 1:6, 48 h) [folds] | viability of A549 cells co-cultured with THP-1 cells (A549 cells [4]) | mRNA expression of PD-L1 (CD274) compared to the control group (A549 cells [5]; A549 cells expressing the protein) [folds] | expression of CD25 and CD29 in Jurkat cells (in words) (Jurkat cells) | migration / motility of cancer cells (in words) (A549 lung cancer cells [1]; listed as S25 non-phosphorylated point mutant of FoxM1) | viability of A549 cells co-cultured with Jurkat cells (in words) (A549 cells [3]; compared to WT or phosphorylation mutant, 48 h) | mRNA (CD274) expression of PD-L1, reduction compared to the control group (A549 cells [5]; A549 cells expressing the mutant)
1 | S25E: FoxM1 phosphorylated point mutant of the S25 residue, expressed by lentivirus in A549 cells (protein, listed as Homo sapiens) MKTSPRRPLILKRRRLPLPVQNAPEETSEEEPKRSPAQQESNQAEASKEVAESNSCKFPAGIKIINHPTMPNTQVVAIPNNANIHSIITALTAKGKESGSSGPNKFILISCGGAPTQPPGLRPQTQTSYDAKRTEVTLETLGPKPAARDVNLPRPPGALCEQKRETCDGEAAGCTINNSLSNIQWLRKMSSDGLGSRSIKQEMEEKENCHLEQRQVKVEEPSRPSASWQNSVSERPPYSYMAMIQFAINSTERKRMTLKDIYTWIEDHFPYFKHIAKPGWKNSIRHNLSLHDMFVRETSANGKVSFWTIHPSANRYLTLDQVFKQQQKRPNPELRRNMTIKTELPLGARRKMKPLLPRVSSYLVPIQFPVNQSLVLQPSVKVPLPLAASLMSSELARHSKRVRIAPKVLLAEEGIAPLSSAGPGKEEKLLFGEGFSPLLPVQTIKEEEIQPGEEMPHLARPIKVESPPLEEWPSPAPSFKEESSHSWEDSSQSPTPRPKKSYSGLRSPTRCVSEMLVIQHRERRERSRSRRKQHLLPPCVDEPELLFSEGPSTSRWAAELPFPADSSDPASQLSYSQEVGGPFKTPIKETLPISSTPSKSVLPRTPESWRLTPPAKVGGLDFSPVQTSQGASDPLPDPLGLMDLSTTPLQSAPPLESPQRLLSSEPLDLISVPFGNSSPSDIDVPKPGSPEPQVSGLAANRSLTEGLVLDTMNDSLSKILLDISFPGLDEDPLGPDNINWSQFIPELQ | ≥ 3 | promoted the motility of lung cancer cells | approximately 6 fold | up to 6 times | increased | 1.2 | 1.3 | 1.5 | gradually increased | 2 |  |  |  | 
2 | S25A: FoxM1 protein with Ser25 substituted with alanine, non-phosphorylated point mutant, expressed by lentivirus in A549 cells (protein, left off: a dimerising Fc or GST, FoxM1 protein with Ser25 substituted with alanine, non-phosphorylated point mutant, expressed by lentivirus in A549 cells) MKTSPRRPLILKRRRLPLPVQNAPAETSEEEPKRSPAQQESNQAEASKEVAESNSCKFPAGIKIINHPTMPNTQVVAIPNNANIHSIITALTAKGKESGSSGPNKFILISCGGAPTQPPGLRPQTQTSYDAKRTEVTLETLGPKPAARDVNLPRPPGALCEQKRETCDGEAAGCTINNSLSNIQWLRKMSSDGLGSRSIKQEMEEKENCHLEQRQVKVEEPSRPSASWQNSVSERPPYSYMAMIQFAINSTERKRMTLKDIYTWIEDHFPYFKHIAKPGWKNSIRHNLSLHDMFVRETSANGKVSFWTIHPSANRYLTLDQVFKQQQKRPNPELRRNMTIKTELPLGARRKMKPLLPRVSSYLVPIQFPVNQSLVLQPSVKVPLPLAASLMSSELARHSKRVRIAPKVLLAEEGIAPLSSAGPGKEEKLLFGEGFSPLLPVQTIKEEEIQPGEEMPHLARPIKVESPPLEEWPSPAPSFKEESSHSWEDSSQSPTPRPKKSYSGLRSPTRCVSEMLVIQHRERRERSRSRRKQHLLPPCVDEPELLFSEGPSTSRWAAELPFPADSSDPASQLSYSQEVGGPFKTPIKETLPISSTPSKSVLPRTPESWRLTPPAKVGGLDFSPVQTSQGASDPLPDPLGLMDLSTTPLQSAPPLESPQRLLSSEPLDLISVPFGNSSPSDIDVPKPGSPEPQVSGLAANRSLTEGLVLDTMNDSLSKILLDISFPGLDEDPLGPDNINWSQFIPELQ |  | reduced |  |  | reduced and inhibited |  |  |  | not changed compared to the control group |  | significantly inhibiting effect | effectively suppressed the motility of lung cancer cells | significantly decreased | about 50%
